Experiments:
[1] = test system: HeLa Kyoto; experiment: melting temperature (median over replicates), in situ; higher = more thermally stable
[2] = test system: HeLa Kyoto; experiment: thermal stability score vs G1/S (z-score of summed log2 fold changes over temperatures); higher = more thermally stable than in G1/S
[3] = test system: HeLa Kyoto; experiment: solubility change mitosis vs G1/S (difference of NP-40 vs SDS log2 ratios) (log2 ratio difference); higher = more soluble in mitosis
[4] = test system: HeLa Kyoto; experiment: solubility in G1/S (NP-40 vs SDS abundance) (log2 ratio); higher = more soluble; conditions: cell cycle stage: G1/S
[5] = cell cycle stage: early G1 (4.5 h after nocodazole release)
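Throughout, for melting temperature (median over replicates), in situ: HeLa Kyoto cells synchronized by double thymidine or nocodazole block, proteins quantified by TMT10plex mass spectrometry, three independent biological replicates.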
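Throughout, for solubility change mitosis vs G1/S (difference of NP-40 vs SDS log2 ratios): synchronized HeLa Kyoto cells (double thymidine block for G1/S, nocodazole release for mitosis), protein amounts in NP-40 versus SDS lysates quantified by mass spectrometry, three biological replicates.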
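Throughout, for solubility in G1/S (NP-40 vs SDS abundance): HeLa Kyoto cells arrested at G1/S by double thymidine block, proteins quantified by TMT10plex mass spectrometry in mild NP-40 versus SDS extracts, three biological replicates.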
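Throughout, for thermal stability score vs G1/S (z-score of summed log2 fold changes over temperatures): synchronized HeLa Kyoto cells, proteins quantified by TMT10plex mass spectrometry, three biological replicates, mitosis taken 0.5 h after nocodazole release, G1/S directly after double thymidine block.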

Row | Sequence | melting temperature ([1]; cell cycle stage: G1/S) [°C] | melting temperature ([1]; cell cycle stage: mitosis) [°C] | thermal stability score [2, 5] | thermal stability score ([2]; cell cycle stage: mitosis) | solubility change mitosis (log2) [3] | solubility in G1/S (log2) [4]
1 | MCDIEEATNQLLDVNLHENQKSVQVTESDLGSESELLVTIGATVPTGFEQTAADEVREKLGSSCKISRDRGKIYFVISVESLAQVHCLRSVDNLFVVVQEFQDYQFKQTKEEVLKDFEDLAGKLPWSNPLKVWKINASFKKKKAKRKKINQNSSKEKINNGQEVKIDQRNVKKEFTSHALDSHILDYYENPAIKEDVSTLIGDDLASCKDETDESSKEETEPQVLKFRVTCNRAGEKHCFTSNEAARDFGGAVQDYFKWKADMTNFDVEVLLNIHDNEVIVGIALTEESLHRRNITHFGPTTLRSTLAYGMLRLCDPLPYDIIVDPMCGTGAIPIEGATEWSDCFHIAGDNNPLAVNRAANNIASLLTKSQIKEGKPSWGLPIDAVQWDICNLPLRTGSVDIIVTDLPFGKRMGSKKRNWNLYPACLREMSRVCTPTTGRAVLLTQDTKCFTKALSGMRHVWRKVDTVWVNVGGLRAAVYVLIRTPQAFVHPSEQDGERGTLWQCKE [THUMPD3] | 52.9 | 53 | -1 | -2.07 | -0.147 | 0.109
2 | MCGDCVEKEYPNRGNTCLENGSFLLNFTGCAVCSKRDFMLITNKSLKEEDGEEIVTYDHLCKNCHHVIARHEYTFSIMDEFQEYTMLCLLCGKAEDTISILPDDPRQMTLLF [CHURC1] | 51.5 | 52.5 | -2.8 | -3.3 | -0.361 | 0.0387
3 | MCGNTMSVPLLTDAATVSGAERETAAVIFLHGLGDTGHSWADALSTIRLPHVKYICPHAPRIPVTLNMKMVMPSWFDLMGLSPDAPEDEAGIKKAAENIKALIEHEMKNGIPANRIVLGGFSQGGALSLYTALTCPHPLAGIVALSCWLPLHRAFPQAANGSAKDLAILQCHGELDPMVPVRFGALTAEKLRSVVTPARVQFKTYPGVMHSSCPQEMAAVKEFLEKLLPPV [LYPLA2] | 53.3 | 53 | -1.02 | 0.00875 | 0.185 | 0.543
4 | MCNTPTYCDLGKAAKDVFNKGYGFGMVKIDLKTKSCSGVEFSTSGHAYTDTGKASGNLETKYKVCNYGLTFTQKWNTDNTLGTEISWENKLAEGLKLTLDTIFVPNTGKKSGKLKASYKRDCFSVGSNVDIDFSGPTIYGWAVLAFEGWLAGYQMSFDTAKSKLSQNNFALGYKAADFQLHTHVNDGTEFGGSIYQKVNEKIETSINLAWTAGSNNTRFGIAAKYMLDCRTSLSAKVNNASLIGLGYTQTLRPGVKLTLSALIDGKNFSAGGHKVGLGFELEA [VDAC3] | 61.6 | 59.9 | -1.43 | -4.76 | -0.0561 | -0.0264
5 | MDAAEVEFLAEKELVTIIPNFSLDKIYLIGGDLGPFNPGLPVEVPLWLAINLKQRQKCRLLPPEWMDVEKLEKMRDHERKEETFTPMPSPYYMELTKLLLNHASDNIPKADEIRTLVKDMWDTRIAKLRVSADSFVRQQEAHAKLDNLTLMEINTSGTFLTQALNHMYKLRTNLQPLESTQSQDF [GINS2] | 50.9 | 52.4 | -1.69 | -2.97 | 0.34 | 0.24
6 | MDAPRASAAKPPTGRKMKARAPPPPGKAATLHVHSDQKPPHDGALGSQQNLVRMKEALRASTMDVTVVLPSGLEKRSVLNGSHAMMDLLVELCLQNHLNPSHHALEIRSSETQQPLSFKPNTLIGTLNVHTVFLKEKVPEEKVKPGPPKVPEKSVRLVVNYLRTQKAVVRVSPEVPLQNILPVICAKCEVSPEHVVLLRDNIAGEELELSKSLNELGIKELYAWDNRRETFRKSSLGNDETDKEKKKFLGFFKVNKRSNSKGCLTTPNSPSMHSRSLTLGPSLSLGSISGVSVKSEMKKRRAPPPPGSGPPVQDKASEKVSLGSQIDLQKKKRRAPAPPPPQPPPPSPLIPNRTEDKEENRKSTMVSLPLGSGSHCSPDGAPQVLSEAEETVSVGSCFASEDTTEDSGVMSSPSDIVSLDSQQDSMKYKDKWATDQEDCSDQDLAGTPDLGPQKSPLWEKNGSENSHLRTEKAVTASNDEEDLLIAGEFRKTLAELDEDLEEMEDSYETDTSSLTSSIHGASNHCPQDAMIPHGDTDAIPVTFIGEVSDDPVDSGLFSNRNNNAGSFDSEGVASRRDSLAPLQAEHSQPHEKAREEVPALHPASHDVGKGIRVALSNISKDGNLMETAPRVTSFASNLHTDNLNAKVKDKVYGCADGERTQATERVNSQPVNEKDSNDKNAALAPTSWHQRGQNPGKSYRLKHGLTTYKIIPPKSEMRCYDRDVSLSTGAIKIDELGNLVSPHATGIRIISLSSSVPEAESQPIGKVREFWRCNSVEKHLGRPSESSARGPPSTPVPTQTQNPESRLQADPKPISPQQKSAHHEGRNPLGEGRNQPPTMGMGHVRVPAAHTTEVTFLKPQRRTSSQYVASAIAKRIGAPKVHADVVRPHGYAEKGYAGKAPVLAAPPVTVKDDRTSSPHSETQGWKDGAQWPCVTPPNNHGEDLAVGAPPRGEVIGPHRKLSTQDRPAAIHRSSCFSLVQSSQRDRVSVGQSCGFSGKQSTSSQEASSASEPRRAPDGTDPPPPHTSDTQACSRELVNGSVRAPGHGEPSHPPGGSGTESHILLEREEKPSVFSTDGNETDSIWPPSIFGPKKKFKPVVQRPVPKDTSLHSALMEAIHSAGGKDRLRKTAEHTGEGRPAKLSYTEAEGERSALLAAIRGHSGTCSLRKVASSASEELQSFRDAALSAQGSESPLLEDLGLLSPPAIPPPPPPPSQALSAPRTASRFSTGTLSNTADARQALMDAIRSGTGAARLRKVPLLV [COBL] | 49.1 | 49.8 | 1.3 | 1.18 | 0.177 | -0.423
7 | MDDDDFGGFEAAETFDGGSGETQTTSPAIPWAAFPAVSGVHLSPSSPEIVLDRDHSSSIGCLSSDAIISSPENTHAANSIVSQTIPKAQIQQSTHTHLDISLFPLGLTDEKSNGTIALVDDSEDPGANVSNIQLQQKISSLEIKLKVSEEEKQRIKQDVESLMEKHNVLEKGFLKEKEQEAISFQDRYKELQEKHKQELEDMRKAGHEALSIIVDEYKALLQSSVKQQVEAIEKQYISAIEKQAHKCEELLNAQHQRLLEMLDTEKELLKEKIKEALIQQSQEQKEILEKCLEEERQRNKEALVSAAKLEKEAVKDAVLKVVEEERKNLEKAHAEERELWKTEHAKDQEKVSQEIQKAIQEQRKISQETVKAAIIEEQKRSEKAVEEAVKRTRDELIEYIKEQKRLDQVIRQRSLSSLELFLSCAQKQLSALIATEPVDIE [CCDC91] | 53 | 52.1 | -0.397 | -0.35 | -0.0653 | 0.348
8 | MDDKELIEYFKSQMKEDPDMASAVAAIRTLLEFLKRDKGETIQGLRANLTSAIETLCGVDSSVAVSSGGELFLRFISLASLEYSDYSKCKKIMIERGELFLRRISLSRNKIADLCHTFIKDGATILTHAYSRVVLRVLEAAVAAKKRFSVYVTESQPDLSGKKMAKALCHLNVPVTVVLDAAVGYIMEKADLVIVGAEGVVENGGIINKIGTNQMAVCAKAQNKPFYVVAESFKFVRLFPLNQQDVPDKFKYKADTLKVAQTGQDLKEEHPWVDYTAPSLITLLFTDLGVLTPSAVSDELIKLYL [EIF2B1] | 57.1 | 55.4 | -1.83 | -1.69 | -0.134 | 0.101
9 | MDDLCEANGTFAISLFKILGEEDNSRNVFFSPMSISSALAMVFMGAKGSTAAQMSQALCLYKDGDIHRGFQSLLSEVNRTGTQYLLRTANRLFGEKTCDFLPDFKEYCQKFYQAELEELSFAEDTEECRKHINDWVAEKTEGKISEVLDAGTVDPLTKLVLVNAIYFKGKWNEQFDRKYTRGMLFKTNEEKKTVQMMFKEAKFKMGYADEVHTQVLELPYVEEELSMVILLPDDNTDLAVVEKALTYEKFKAWTNSEKLTKSKVQVFLPRLKLEESYDLEPFLRRLGMIDAFDEAKADFSGMSTEKNVPLSKVAHKCFVEVNEEGTEAAAATAVVRNSRCSRMEPRFCADHPFLFFIRHHKTNCILFCGRFSSP [SERPINB8] | 54.6 | 54.2 | -0.0278 | -0.739 | -0.115 | 0.146
10 | MDDPDCDSTWEEDEEDAEDAEDEDCEDGEAAGARDADAGDEDEESEEPRAARPSSFQSRMTGSRNWRATRDMCRYRHNYPDLVERDCNGDTPNLSFYRNEIRFLPNGCFIEDILQNWTDNYDLLEDNHSYIQWLFPLREPGVNWHAKPLTLREVEVFKSSQEIQERLVRAYELMLGFYGIRLEDRGTGTVGRAQNYQKRFQNLNWRSHNNLRITRILKSLGELGLEHFQAPLVRFFLEETLVRRELPGVRQSALDYFMFAVRCRHQRRQLVHFAWEHFRPRCKFVWGPQDKLRRFKPSSLPHPLEGSRKVEEEGSPGDPDHEASTQGRTCGPEHSKGGGRVDEGPQPRSVEPQDAGPLERSQGDEAGGHGEDRPEPLSPKESKKRKLELSRREQPPTEPGPQSASEVEKIALNLEGCALSQGSLRTGTQEVGGQDPGEAVQPCRQPLGARVADKVRKRRKVDEGAGDSAAVASGGAQTLALAGSPAPSGHPKAGHSENGVEEDTEGRTGPKEGTPGSPSETPGPSPAGPAGDEPAESPSETPGPRPAGPAGDEPAESPSETPGPRPAGPAGDEPAESPSETPGPSPAGPTRDEPAESPSETPGPRPAGPAGDEPAESPSETPGPRPAGPAGDEPAESPSETPGPSPAGPTRDEPAKAGEAAELQDAEVESSAKSGKP [OGFR] | 48.1 | 49.6 | 1.46 | 3.46 | -0.0617 | 0.423
11 | MDDQGCPRCKTTKYRNPSLKLMVNVCGHTLCESCVDLLFVRGAGNCPECGTPLRKSNFRVQLFEDPTVDKEVEIRKKVLKIYNKREEDFPSLREYNDFLEEVEEIVFNLTNNVDLDNTKKKMEIYQKENKDVIQKNKLKLTREQEELEEALEVERQENEQRRLFIQKEEQLQQILKRKNKQAFLDELESSDLPVALLLAQHKDRSTQLEMQLEKPKPVKPVTFSTGIKMGQHISLAPIHKLEEALYEYQPLQIETYGPHVPELEMLGRLGYLNHVRAASPQDLAGGYTSSLACHRALQDAFSGLFWQPS [MNAT1] | 52.1 | 53 | -0.397 | -0.426 | 0.565 | -0.181
12 | MDDQQALNSIMQDLAVLHKASRPALSLQETRKAKSSSPKKQNDVRVKFEHRGEKRILQFPRPVKLEDLRSKAKIAFGQSMDLHYTNNELVIPLTTQDDLDKAVELLDRSIHMKSLKILLVINGSTQATNLEPLPSLEDLDNTVFGAERKKRLSIIGPTSRDRSSPPPGYIPDELHQVARNGSFTSINSEGEFIPESMDQMLDPLSLSSPENSGSGSCPSLDSPLDGESYPKSRMPRAQSYPDNHQEFSDYDNPIFEKFGKGGTYPRRYHVSYHHQEYNDGRKTFPRARRTQGTSLRSPVSFSPTDHSLSTSSGSSIFTPEYDDSRIRRRGSDIDNPTLTVMDISPPSRSPRAPTNWRLGKLLGQGAFGRVYLCYDVDTGRELAVKQVQFDPDSPETSKEVNALECEIQLLKNLLHERIVQYYGCLRDPQEKTLSIFMEYMPGGSIKDQLKAYGALTENVTRKYTRQILEGVHYLHSNMIVHRDIKGANILRDSTGNVKLGDFGASKRLQTICLSGTGMKSVTGTPYWMSPEVISGEGYGRKADIWSVACTVVEMLTEKPPWAEFEAMAAIFKIATQPTNPKLPPHVSDYTRDFLKRIFVEAKLRPSADELLRHMFVHYH [MAP3K2] | 51.3 | 51.4 | 0.798 | 1.24 | -0.043 | 0.0839
13 | MDEEYDVIVLGTGLTECILSGIMSVNGKKVLHMDRNPYYGGESSSITPLEELYKRFQLLEGPPESMGRGRDWNVDLIPKFLMANGQLVKMLLYTEVTRYLDFKVVEGSFVYKGGKIYKVPSTETEALASNLMGMFEKRRFRKFLVFVANFDENDPKTFEGVDPQTTSMRDVYRKFDLGQDVIDFTGHALALYRTDDYLDQPCLETVNRIKLYSESLARYGKSPYLYPLYGLGELPQGFARLSAIYGGTYMLNKPVDDIIMENGKVVGVKSEGEVARCKQLICDPSYIPDRVRKAGQVIRIICILSHPIKNTNDANSCQIIIPQNQVNRKSDIYVCMISYAHNVAAQGKYIAIASTTVETTDPEKEVEPALELLEPIDQKFVAISDLYEPIDDGCESQVFCSCSYDATTHFETTCNDIKDIYKRMAGTAFDFENMKRKQNDVFGEAEQ [GDI1] | 54.2 | 53.8 | -0.651 | -1.41 | -0.152 | 0.0264

Source: the supplement of paper PMC5998384
